Biological target: InlB (recombinant His-tagged InlB321 peptide, aa 36-321 of internalin B) (Listeria monocytogenes)
Experiment: FACS competition; InlB pre-incubated with soluble MET peptide at 1:1 molar ratio

“MET peptide (soluble peptide derived from the extracellular, ligand-binding domain of MET; YCP2247 SPEED BioSystems) (from UniProt P08581 25-932) (receptor)” was tested, and the percent reduction of InlB binding to H1993 cells was 50%.
